Results published in publication PMC11078644, “Nesprin-2 is a novel scaffold protein for telethonin and FHL-2 in the cardiomyocyte sarcomere” (The Journal of Biological Chemistry, 2024).

B1: HA-tagged telethonin WT, purified recombinant protein, without PKD pre-treatment [not stated] / GST-nesprin-2 SR51-53 (amino acids 6018-6354) [human] (parent)
chain 1: MATSELSCEVSEENCERREAFWAEWKDLTLSTRPEEGCSLHEEDTQRHETYHQQGQCQVLVQRSPWLMMRMGILGRGLQEYQLPYQRVLPLPIFTPAKMGATKEEREDTPIQLQELLALETALGGQCVDRQEVAEITKQLPPVVPVSKPGALRRSLSRSMSQEAQRG
chain 2: KETFAFIQQLDKNMSNLRTWLARIESELSKPVVYDVCDDQEIQKRLAEQQDLQRDIEQHSAGVESVFNICDVLLHDSDACANETECDSIQQTTRSLDRRWRNICAMSMERRMKIEETWRLWQKFLDDYSRFEDWLKSAERTAACPNSSEVLYTSAKEELKRFEAFQRQIHERLTQLELINKQYRRLARENRTDTASRLKQMVHEGNQRWDNLQRRVTAVLRRLRHFTNQREEFEGTRESILVWLTEMDLQLTNVEHFSESDADDKMRQLNGFQQEITLNTNKIDQLIVFGEQLIQKSEPLDAVLIEDELEELHRYCQEVFGRVSRFHRRLTSCTPGL

Variants of: B1
Experiment: GST pull-down, densitometry
Conditions: with GST-nesprin-2 SR51-53 (amino acids 6018-6354) [human]; without PKD pre-treatment (P-); n = 5; parent: 1; read off a plot

| ratio to parent | Variant |
| --- | --- |
| 1.1 | chain 1 MATSELSCEVSEENCERREAFWAEWKDLTLSTRPEEGCSLHEEDTQRHETYHQQGQCQVLVQRSPWLMMRMGILGRGLQEYQLPYQRVLPLPIFTPAKMGATKEEREDTPIQLQELLALETALGGQCVDRQEVAEITKQLPPVVPVSKPGALRRSLARSMAQEAQRG |
